The data set deals with the molecule itself. In words: SEC. On the technique in general: In gel filtration, larger molecules generally elute earlier.

B1: GIRK2 R92F channel (G protein-gated inwardly rectifying potassium channel 2, R92F substitution) (natural protein, mouse, UniProt P48542 1-425, looked up)
chain: MTMAKLTESMTNVLEGDSMDQDVESPVAIHQPKLPKQARDDLPRHISRDRTKRKIQRYVRKDGKCNVHHGNVRETYRYLTDIFTTLVDLKWFFNLLIFVMVYTVTWLFFGMIWWLIAYIRGDMDHIEDPSWTPCVTNLNGFVSAFLFSIETETTIGYGYRVITDKCPEGIILLLIQSVLGSIVNAFMVGCMFVKISQPKKRAETLVFSTHAVISMRDGKLCLMFRVGDLRNSHIVEASIRAKLIKSKQTSEGEFIPLNQSDINVGYYTGDDRLFLVSPLIISHEINQQSPFWEISKAQLPKEELEIVVILEGIVEATGMTCQARSSYITSEILWGYRFTPVLTMEDGFYEVDYNSFHETYETSTPSLSAKELAELANRAEVPLSWSVSSKLNQHAELETEEEEKNPEELTERNGDVANLENESKV
A word on the stoichiometry N: it is the number of molecules, sites or subunits per partner or assembly. As to B1, the “stoichiometry N” value came out at 4.
